Assay results: US7524668

Molecular target: recombinant soluble human beta-secretase from CHO-K1 cells (Hu_Asp-2LdeltaTM(His)6) (UniProt P56817)
Sequence (P56817 other isoform, or with tags, fused parts or gaps mutant): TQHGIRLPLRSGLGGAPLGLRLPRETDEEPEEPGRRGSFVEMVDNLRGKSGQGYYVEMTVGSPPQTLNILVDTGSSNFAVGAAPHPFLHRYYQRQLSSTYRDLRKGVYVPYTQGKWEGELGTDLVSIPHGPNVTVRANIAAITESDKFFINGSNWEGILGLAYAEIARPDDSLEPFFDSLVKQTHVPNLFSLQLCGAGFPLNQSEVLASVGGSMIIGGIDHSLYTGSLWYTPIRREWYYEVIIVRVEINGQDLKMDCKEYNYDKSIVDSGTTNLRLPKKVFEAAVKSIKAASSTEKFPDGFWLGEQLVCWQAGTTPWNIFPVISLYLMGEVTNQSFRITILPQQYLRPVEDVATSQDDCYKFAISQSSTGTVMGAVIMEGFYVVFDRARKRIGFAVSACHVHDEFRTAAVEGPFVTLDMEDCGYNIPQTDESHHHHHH

**Q.** HIV-1 protease was tested. Which “cleavage of the F39-V40 bond (N-terminal sequence after incubation; pH 5.7, 0.5 M urea, 5% HIV protease, 1 hour at 37 C)” value did it give?
**A.** The value was “nearly 100% cleavage of the F^39-V^40 bond occurred”.
